Test results reported in publication PMC3287200 (Nucleic Acids Research, 2011).

Key:
SEC + other: SDS-PAGE = molecular target: the molecule itself; assay: SEC + other: SDS-PAGE
BsHfq-His [1] = molecular target: T1, BsHfq-His (Bacillus subtilis, UniProt O31796 1-73); assay: UV cross-linking
T1 sequence: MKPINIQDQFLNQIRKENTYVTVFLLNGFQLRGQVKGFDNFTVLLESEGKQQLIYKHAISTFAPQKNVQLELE

BsHfq-His F29A = molecular target: T2, BsHfq-His F29A (Bacillus subtilis, UniProt O31796 1-73, F29A); assay: EMSA
T2 sequence: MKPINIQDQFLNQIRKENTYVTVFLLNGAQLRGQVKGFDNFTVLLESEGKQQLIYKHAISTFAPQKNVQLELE

BsHfq-His F24A = molecular target: T3, BsHfq-His F24A (Bacillus subtilis, UniProt O31796 1-73, F24A); assay: EMSA
T3 sequence: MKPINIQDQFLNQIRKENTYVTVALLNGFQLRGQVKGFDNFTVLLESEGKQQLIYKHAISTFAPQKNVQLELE

BsHfq-His R32A = molecular target: T4, BsHfq-His R32A (Bacillus subtilis, UniProt O31796 1-73, R32A); assay: EMSA
T4 sequence: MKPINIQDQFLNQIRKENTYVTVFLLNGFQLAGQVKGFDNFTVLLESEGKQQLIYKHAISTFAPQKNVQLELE

BsHfq-His Q30A = molecular target: T5, BsHfq-His Q30A (Bacillus subtilis, UniProt O31796 1-73, Q30A); assay: EMSA
T5 sequence: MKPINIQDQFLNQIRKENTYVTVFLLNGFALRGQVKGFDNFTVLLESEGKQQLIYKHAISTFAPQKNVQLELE

BsHfq-His F41A = molecular target: T6, BsHfq-His F41A (Bacillus subtilis, UniProt O31796 1-73, F41A); assay: EMSA
T6 sequence: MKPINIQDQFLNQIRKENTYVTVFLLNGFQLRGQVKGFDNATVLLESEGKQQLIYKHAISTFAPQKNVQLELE

BsHfq-His N40A = molecular target: T7, BsHfq-His N40A (Bacillus subtilis, UniProt O31796 1-73, N40A); assay: EMSA
T7 sequence: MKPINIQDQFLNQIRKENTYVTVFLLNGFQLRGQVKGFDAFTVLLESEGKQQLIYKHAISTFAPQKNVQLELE

BsHfq-His [2] = molecular target: T1, BsHfq-His; assay: UV cross-linking; remark: listed apart in the source
BsHfq (GST removed) = molecular target: T8, BsHfq (GST removed) (Bacillus subtilis, UniProt O31796 1-73); assay: EMSA
T8 sequence: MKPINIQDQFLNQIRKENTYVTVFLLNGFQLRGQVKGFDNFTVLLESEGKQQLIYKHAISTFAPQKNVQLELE

BsHfq-His [3] = molecular target: T1, BsHfq-His; assay: EMSA

B1: BsHfq-His H57A (natural protein, Bacillus subtilis)
chain: MKPINIQDQFLNQIRKENTYVTVFLLNGFQLRGQVKGFDNFTVLLESEGKQQLIYKAAISTFAPQKNVQLELE
In the case of B1, the “ability to form hexameric structure, percent of wild-type” value (SEC + other: SDS-PAGE) is reported as ~30 % of wild-type.

B2: C-terminal 6x His fusion BsHfq, wild type (natural protein, Bacillus subtilis)
chain: MKPINIQDQFLNQIRKENTYVTVFLLNGFQLRGQVKGFDNFTVLLESEGKQQLIYKHAISTFAPQKNVQLELE
With B2 the “stoichiometry N” value (SEC + other: SDS-PAGE) was 6.

B3: BsHfq-His F24A (natural protein, Bacillus subtilis)
chain: MKPINIQDQFLNQIRKENTYVTVALLNGFQLRGQVKGFDNFTVLLESEGKQQLIYKHAISTFAPQKNVQLELE
For B3, the “stoichiometry N” value (SEC + other: SDS-PAGE) was 6.

B4: BsHfq-His F29A (natural protein, Bacillus subtilis)
chain: MKPINIQDQFLNQIRKENTYVTVFLLNGAQLRGQVKGFDNFTVLLESEGKQQLIYKHAISTFAPQKNVQLELE
For B4, the “stoichiometry N” value (SEC + other: SDS-PAGE) was 6.

B5: BsHfq-His Q30A (natural protein, Bacillus subtilis)
chain: MKPINIQDQFLNQIRKENTYVTVFLLNGFALRGQVKGFDNFTVLLESEGKQQLIYKHAISTFAPQKNVQLELE
For B5, the “stoichiometry N” value (SEC + other: SDS-PAGE) was 6.

B6: BsHfq-His R32A (natural protein, Bacillus subtilis)
chain: MKPINIQDQFLNQIRKENTYVTVFLLNGFQLAGQVKGFDNFTVLLESEGKQQLIYKHAISTFAPQKNVQLELE
B6 was tested, and the “stoichiometry N” value (SEC + other: SDS-PAGE) was 6.

B7: BsHfq-His N40A (natural protein, Bacillus subtilis)
chain: MKPINIQDQFLNQIRKENTYVTVFLLNGFQLRGQVKGFDAFTVLLESEGKQQLIYKHAISTFAPQKNVQLELE
In the case of B7, the “stoichiometry N” value (SEC + other: SDS-PAGE) is reported as 6.

B8: BsHfq-His F41A (natural protein, Bacillus subtilis)
chain: MKPINIQDQFLNQIRKENTYVTVFLLNGFQLRGQVKGFDNATVLLESEGKQQLIYKHAISTFAPQKNVQLELE
In the case of B8, the “stoichiometry N” value (SEC + other: SDS-PAGE) is reported as 6.

B9: BsHfq-His K56A (natural protein, Bacillus subtilis)
chain: MKPINIQDQFLNQIRKENTYVTVFLLNGFQLRGQVKGFDNFTVLLESEGKQQLIYAHAISTFAPQKNVQLELE
With B9 the “ability to form hexameric structure, percent of wild-type” value (SEC + other: SDS-PAGE) was ~60 % of wild-type.

B10: 49R (structured_RNA)
RNA: GGGCGAAUUCUAGAGAGAGAUUAGAUCCUGUCCGCGGCUAAAGCU
B10: binds (BsHfq-His [1]); no binding (BsHfq-His F29A); no binding (BsHfq-His F24A). B10: no binding (BsHfq-His R32A); no binding (BsHfq-His Q30A); binds (BsHfq-His F41A). B10: binds (BsHfq-His N40A).

B11: 49R-A (ssRNA)
RNA: GGGCGAAUUCUAGAGAAAGAUUAGAUCCUGUCCGCGGCUAAAGCU
B11: binds (BsHfq-His [2]).

B12: AU5G (ssRNA)
RNA: AUUUUUG
B12: no binding (BsHfq (GST removed)).

B13: 28f (ssRNA)
RNA: GGGACACAAUGGACGAGGGAUUUGGGUGAUAUUUUUAGUCGGUCAUAACGGCCGACAUGAGAG
B13: no binding (BsHfq-His [3]).
